Columns and labels:
pNPB = experiment: Proxy for plastic degradation [Absorbance @ 430nm] (min⁻¹); details: pH 8; part of the chain shown
PET [1] = experiment: Proxy for plastic degradation [Released monomer concentration (HPLC/LC-MS) (MHET+TPA)]; details: pH 9, part of the chain shown
PET [2] = experiment: Proxy for plastic degradation [kcat/Km (catalytic efficiency)] (mM⁻¹s⁻¹); details: pH 8; part of the chain shown
[3] = Proxy for plastic degradation [Released monomer concentration (HPLC/LC-MS) (TPA+MHET)]; details: part of the chain shown
PET [4] = experiment: as above; details: part of the chain shown

Sequence	Proxy for plastic degradation (pNPB)	Proxy for plastic degradation (PET [1]; 30 °C) [µM]	Proxy for plastic degradation (PET [1]; 40 °C) [µM]	Proxy for plastic degradation (PET [1]; 50 °C) [µM]	Proxy for plastic degradation (PET [1]; 55 °C) [µM]	Proxy for plastic degradation (PET [1]; 60 °C) [µM]	Proxy for plastic degradation (PET [2])	Proxy for plastic degradation ([3]; 30 °C) [µM]	Proxy for plastic degradation ([3]; 40 °C) [µM]	Proxy for plastic degradation ([3]; 60 °C) [µM]	Proxy for plastic degradation (PET [4]; 30 °C) [µM]	Proxy for plastic degradation (PET [4]; 40 °C) [µM]	Proxy for plastic degradation (PET [4]; 55 °C) [µM]	Proxy for plastic degradation (PET [4]; 60 °C) [µM]	Proxy for plastic degradation (PET [4]; pH 9, 50 °C, 24 h) [µM]	Proxy for plastic degradation (PET [4]; pH 9, 50 °C, 48 h) [µM]	Proxy for plastic degradation (PET [4]; pH 9, 50 °C, 72 h) [µM]
AGFEKGPDPTTASVTADRGSYDIAQVDVPKGSGTGFADGTIYY	16200	14.6	14.2	14.1	14.4	15	–	–	–	–	–	–	–	–	–	–	–
CFGGGDPDPSPEGQALGVPGDFEICSYEANLENDGYASARMTYPCDLS	24400	9.91	9.79	11	10.1	10.5	–	–	–	–	–	–	–	–	–	–	–
DEIGQAPTAANITGDGSFSTSSSAIFGQSGFGGGTAYYPNTAGKYPVVAF	34300	65.5	759	3600	596	167	0.263	65	759	167	65.5	759	167	104	742	1640	3600
DPWDAPGPYATAVQIGAVNTLYYPRDIASSPRRHPVIVWGNGT	21900	13	13.4	14.2	13.4	14.1	–	–	–	–	–	–	–	–	–	–	–
ESETTAAAVSSRYYEETGPHAVTVEQGGPDHTLYYPSDLGAGGT	32300	13.9	14.7	10.6	15.5	15.3	–	–	–	–	–	–	–	–	–	–	–
FGNNGGGGGGEDNVFAEPGDFDVVTEPGGRDCTIFRPEQLGDDH	23500	14	13.8	15.8	14.4	14.9	–	–	–	–	–	–	–	–	–	–	–
GDPPAVRTVPAAAAAPVDWSKTGPHQVKVDKADAHTIYRPSDLG	44800	12.7	12.6	15.7	16	16.4	–	–	–	–	–	–	–	–	–	–	–
LDSPYQRGPDPTEASVKAIAGPFAVDQVKATGHTGFGSGTIFYP	41400	11.2	22.8	44.2	26.1	19.7	–	–	–	–	–	–	–	–	–	–	–
NNPGGGGGTAPDTGTGFPGVSNFSASGSFATTSGSAGASCTVFRPST	25400	8.31	9.03	9.57	9.09	9.47	–	–	–	–	–	–	–	–	–	–	–
QDNSDGRYRPEGRTFARGAANLFDDRLFEARTYVTGTDVA	49500	15.4	15.5	15.5	16.6	16.1	–	–	–	–	–	–	–	–	–	–	–
QTNPYARGPNPTAASLEASAGPFTVRSFTVSRPSGYGAGTVYY	24900	17.3	64.7	46.9	27.4	17.4	–	–	–	–	–	–	–	–	–	–	–
TPEFKPQPGPLSIKSAAAISFRVEDQAKDLQIRVTYPDGPGPWP	16800	15.7	12.8	17.3	17.3	17.2	–	–	–	–	–	–	–	–	–	–	–
VTKGPDPSAAEVAKVTGSYAVTETKVDDAASTKFGPATV	31400	15	12.8	15.3	16.2	16.3	–	–	–	–	–	–	–	–	–	–	–

— the PETadex activity labels (doi:10.1038/s41467-025-61599-z)
